# Test results: the supplement of paper PMC5998384
# Tests used:
# HeLa Kyoto [1] = experiment: solubility in G1/S (NP-40 vs SDS abundance) (log2 ratio); higher = more soluble; conditions: cell cycle stage: G1/S
# HeLa Kyoto [2] = experiment: melting temperature (median over replicates), in situ; higher = more thermally stable
# HeLa Kyoto [3] = experiment: solubility change mitosis vs G1/S (difference of NP-40 vs SDS log2 ratios) (log2 ratio difference); higher = more soluble in mitosis
# 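Wherever melting temperature (median over replicates), in situ is given: HeLa Kyoto cells synchronized by double thymidine or nocodazole block, proteins quantified by TMT10plex mass spectrometry, three independent biological replicates.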
# 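Wherever solubility change mitosis vs G1/S (difference of NP-40 vs SDS log2 ratios) is given: synchronized HeLa Kyoto cells (double thymidine block for G1/S, nocodazole release for mitosis), protein amounts in NP-40 versus SDS lysates quantified by mass spectrometry, three biological replicates.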
# 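Wherever solubility in G1/S (NP-40 vs SDS abundance) is given: HeLa Kyoto cells arrested at G1/S by double thymidine block, proteins quantified by TMT10plex mass spectrometry in mild NP-40 versus SDS extracts, three biological replicates.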
Sequence,solubility in G1/S (log2) (HeLa Kyoto [1]),melting temperature (HeLa Kyoto [2]; cell cycle stage: G1/S),melting temperature (HeLa Kyoto [2]; cell cycle stage: mitosis),solubility change mitosis (log2) (HeLa Kyoto [3])
MANSANTNTVPKLYRSVIEDVINDVRDIFLDDGVDEQVLMELKTLWENKLMQSRAVDGFHSEEQQLLLQVQQQHQPQQQQHHHHHHHQQAQPQQTVPQQAQTQQVLIPASQQATAPQVIVPDSKLIQHMNASNMSAAATAATLALPAGVTPVQQILTNSGQLLQVVRAANGAQYIFQPQQSVVLQQQVIPQMQPGGVQAPVIQQVLAPLPGGISPQTGVIIQPQQILFTGNKTQVIPTTVAAPTPAQAQITATGQQQPQAQPAQTQAPLVLQVDGTGDTSSEEDEDEEEDYDDDEEEDKEKDGAEDGQVEEEPLNSEDDVSDEEGQELFDTENVVVCQYDKIHRSKNKWKFHLKDGIMNLNGRDYIFSKAIGDAEW [GTF2A1],-0.719,56.2 °C,57.2 °C,0.475
MAQETNHSQVPMLCSTGCGFYGNPRTNGMCSVCYKEHLQRQNSSNGRISPPATSVSSLSESLPVQCTDGSVPEAQSALDSTSSSMQPSPVSNQSLLSESVASSQLDSTSVDKAVPETEDVQASVSDTAQQPSEEQSKSLEKPKQKKNRCFMCRKKVGLTGFECRCGNVYCGVHRYSDVHNCSYNYKADAAEKIRKENPVVVGEKIQKI [ZFAND6],0.396,56.7 °C,,-0.182
MASTGSQASDIDEIFGFFNDGEPPTKKPRKLLPSLKTKKPRELVLVIGTGISAAVAPQVPALKSWKGLIQALLDAAIDFDLLEDEESKKFQKCLHEDKNLVHVAHDLIQKLSPRTSNVRSTFFKDCLYEVFDDLESKMEDSGKQLLQSVLHLMENGALVLTTNFDNLLELYAADQGKQLESLDLTDEKKVLEWAQEKRKLSVLHIHGVYTNPSGIVLHPAGYQNVLRNTEVMREIQKLYENKSFLFLGCGWTVDDTTFQALFLEAVKHKSDLEHFMLVRRGDVDEFKKLRENMLDKGIKVISYGDDYADLPEYFKRLTCEISTRGTSAGMVREGQLNGSSAAHSEIRGCST [FAM118B],0.418,49.3 °C,50.5 °C,-0.123
MAVSGFTLGTCILLLHISYVANYPNGKVTQSCHGMIPEHGHSPQSVPVHDIYVSQMTFRPGDQIEVTLSGHPFKGFLLEARNAEDLNGPPIGSFTLIDSEVSQLLTCEDIQGSAVSHRSASKKTEIKVYWNAPSSAPNHTQFLVTVVEKYKIYWVKIPGPIISQPNAFPFTTPKATVVPLPTLPPVSHLTKPFSASDCGNKKFCIRSPLNCDPEKEASCVFLSFTRDDQSVMVEMSGPSKGYLSFALSHDQWMGDDDAYLCIHEDQTVYIQPSHLTGRSHPVMDSRDTLEDMAWRLADGVMQCSFRRNITLPGVKNRFDLNTSYYIFLADGAANDGRIYKHSQQPLITYEKYDVTDSPKNIGGSHSVLLLKVHGALMFVAWMTTVSIGVLVARFFKPVWSKAFLLGEAAWFQVHRMLMFTTTVLTCIAFVMPFIYRGGWSRHAGYHPYLGCIVMTLAVLQPLLAVFRPPLHDPRRQMFNWTHWSMGTAARIIAVAAMFLGMDLPGLNLPDSWKTYAMTGFVAWHVGTEVVLEVHAYRLSRKVEILDDDRIQILQSFTAVETEGHAFKKAVLAIYVCGNVTFLIIFLSAINHL [FRRS1],0.0918,58.8 °C,,0.186
MDLHMMNCELLATCSALGYLEGDTYHKEPDCLESVKDLIRYLRHEDETRDVRQQLGAAQILQSDLLPILTQHHQDKPLFDAVIRLMVNLTQPALLCFGNLPKEPSFRHHFLQVLTYLQAYKEAFASEKAFGVLSETLYELLQLGWEERQEEDNLLIERILLLVRNILHVPADLDQEKKIDDDASAHDQLLWAIHLSGLDDLLLFLASSSAEEQWSLHVLEIVSLMFRDQNPEQLAGVGQGRLAQERSADFAELEVLRQREMAEKKTRALQRGNRHSRFGGSYIVQGLKSIGERDLIFHKGLHNLRNYSSDLGKQPKKVPKRRQAARELSIQRRSALNVRLFLRDFCSEFLENCYNRLMGSVKDHLLREKAQQHDETYYMWALAFFMAFNRAASFRPGLVSETLSVRTFHFIEQNLTNYYEMMLTDRKEAASWARRMHLALKAYQELLATVNEMDISPDEAVRESSRIIKNNIFYVMEYRELFLALFRKFDERCQPRSFLRDLVETTHLFLKMLERFCRSRGNLVVQNKQKKRRKKKKKVLDQAIVSGNVPSSPEEVEAVWPALAEQLQCCAQNSELSMDSVVPFDAASEVPVEEQRAEAMVRIQDCLLAGQAPQALTLLRSAREVWPEGDVFGSQDISPEEEIQLLKQILSAPLPRQQGPEERGAEEEEEEEEEEEEELQVVQVSEKEFNFLDYLKRFACSTVVRAYVLLLRSYQQNSAHTNHCIVKMLHRLAHDLKMEALLFQLSVFCLFNRLLSDPAAGAYKELVTFAKYILGKFFALAAVNQKAFVELLFWKNTAVVREMTEGYGSLDDRSSSRRAPTWSPEEEAHLRELYLANKDVEGQDVVEAILAHLNTVPRTRKQIIHHLVQMGLADSVKDFQRKGTHIVLWTGDQELELQRLFEEFRDSDDVLGHIMKNITAKRSRARIVDKLLALGLVAERRELYKKRQKKLASSILPNGAESLKDFCQEDLEEEENLPEEDSEEEEEGGSEAEQVQGSLVLSNENLGQSLHQEGFSIPLLWLQNCLIRAADDREEDGCSQAVPLVPLTEENEEAMENEQFQQLLRKLGVRPPASGQETFWRIPAKLSPTQLRRAAASLSQPEEEQKLQPELQPKVPGEQGSDEEHCKEHRAQALRALLLAHKKKAGLASPEEEDAVGKEPLKAAPKKRQLLDSDEEQEEDEGRNRAPELGAPGIQKKKRYQIEDDEDD [TIMELESS],-0.204,49.5 °C,49.2 °C,-0.0762
MDNLSSEEIQQRAHQITDESLESTRRILGLAIESQDAGIKTITMLDEQKEQLNRIEEGLDQINKDMRETEKTLTELNKCCGLCVCPCNRTKNFESGKAYKTTWGDGGENSPCNVVSKQPGPVTNGQLQQPTTGAASGGYIKRITNDAREDEMEENLTQVGSILGNLKDMALNIGNEIDAQNPQIKRITDKADTNRDRIDIANARAKKLIDS [SNAP23],-0.00465,54.8 °C,54 °C,0.381
MDTLDRVVKPKTKRAKRFLEKREPKLNENIKNAMLIKGGNANATVTKVLKDVYALKKPYGVLYKKKNITRPFEDQTSLEFFSKKSDCSLFMFGSHNKKRPNNLVIGRMYDYHVLDMIELGIENFVSLKDIKNSKCPEGTKPMLIFAGDDFDVTEDYRRLKSLLIDFFRGPTVSNIRLAGLEYVLHFTALNGKIYFRSYKLLLKKSGCRTPRIELEEMGPSLDLVLRRTHLASDDLYKLSMKMPKALKPKKKKNISHDTFGTTYGRIHMQKQDLSKLQTRKMKGLKKRPAERITEDHEKKSKRIKKN [RPF2],-2.68,,53.4 °C,1.42
MEADSPAGPGAPEPLAEGAAAEFSSLLRRIKGKLFTWNILKTIALGQMLSLCICGTAITSQYLAERYKVNTPMLQSFINYCLLFLIYTVMLAFRSGSDNLLVILKRKWWKYILLGLADVEANYVIVRAYQYTTLTSVQLLDCFGIPVLMALSWFILHARYRVIHFIAVAVCLLGVGTMVGADILAGREDNSGSDVLIGDILVLLGASLYAISNVCEEYIVKKLSRQEFLGMVGLFGTIISGIQLLIVEYKDIASIHWDWKIALLFVAFALCMFCLYSFMPLVIKVTSATSVNLGILTADLYSLFVGLFLFGYKFSGLYILSFTVIMVGFILYCSTPTRTAEPAESSVPPVTSIGIDNLGLKLEENLQETHSAVL [SLC35F2],0.147,,56.1 °C,-0.182
MEDSGKTFSSEEEEANYWKDLAMTYKQRAENTQEELREFQEGSREYEAELETQLQQIETRNRDLLSENNRLRMELETIKEKFEVQHSEGYRQISALEDDLAQTKAIKDQLQKYIRELEQANDDLERAKRATIMSLEDFEQRLNQAIERNAFLESELDEKENLLESVQRLKDEARDLRQELAVQQKQEKPRTPMPSSVEAERTDTAVQATGSVPSTPIAHRGPSSSLNTPGSFRRGLDDSTGGTPLTPAARISALNIVGDLLRKVGALESKLASCRNLVYDQSPNRTGGPASGRSSKNRDGGERRPSSTSVPLGDKGLDTSCRWLSKSTTRSSSSC [NDE1],0.236,54.1 °C,53.7 °C,0.568
MEEYHRHCDEVGFNAEEAHNIVKECVDGVLGGEDYNHNNINQWTASIVEQSLTHLVKLGKAYKYIVTCAVVQKSAYGFHTASSCFWDTTSDGTCTVRWENRTMNCIVNVFAIAIVL [DYNLT3],-0.189,53.3 °C,54.1 °C,-0.243
MELFQAKDHYILQQGERALWCSRRDGGLQLRPATDLLLAWNPICLGLVEGVIGKIQLHSDLPWWLILIRQKALVGKLPGDHEVCKVTKIAVLSLSEMEPQDLELELCKKHHFGINKPEKIIPSPDDSKFLLKTFTHIKSNVSAPNKKKVKESKEKEKLERRLLEELLKMFMDSESFYYSLTYDLTNSVQRQSTGERDGRPLWQKVDDRFFWNKYMIQDLTEIGTPDVDFWIIPMIQGFVQIEELVVNYTESSDDEKSSPETPPQESTCVDDIHPRFLVALISRRSRHRAGMRYKRRGVDKNGNVANYVETEQLIHVHNHTLSFVQTRGSVPVFWSQVGYRYNPRPRLDRSEKETVAYFCAHFEEQLNIYKKQVIINLVDQAGREKIIGDAYLKQVLLFNNSHLTYVSFDFHEHCRGMKFENVQTLTDAIYDIILDMKWCWVDEAGVICKQEGIFRVNCMDCLDRTNVVQAAIARVVMEQQLKKLGVMPPEQPLPVKCNRIYQIMWANNGDSISRQYAGTAALKGDFTRTGERKLAGVMKDGVNSANRYYLNRFKDAYRQAVIDLMQGIPVTEDLYSIFTKEKEHEALHKENQRSHQELISQLLQSYMKLLLPDDEKFHGGWALIDCDPSLIDATHRDVDVLLLLSNSAYYVAYYDDEVDKVNQYQRLSLENLEKIEIGPEPTLFGKPKFSCMRLHYRYKEASGYFHTLRAVMRNPEEDGKDTLQCIAEMLQITKQAMGSDLPIIEKKLERKSSKPHEDIIGIRSQNQGSLAQGKNFLMSKFSSLNQKVKQTKSNVNIGNLRKLGNFTKPEMKVNFLKPNLKVNLWKSDSSLETMENTGVMDKVQAESDGDMSSDNDSYHSDEFLTNSKSDEDRQLANSLESVGPIDYVLPSCGIIASAPRLGSRSQSLSSTDSSVHAPSEITVAHGSGLGKGQESPLKKSPSAGDVHILTGFAKPMDIYCHRFVQDAQNKVTHLSETRSVSQQASQERNQMTNQVSNETQSESTEQTPSRPSQLDVSLSATGPQFLSVEPAHSVASQKTPTSASSMLELETGLHVTPSPSESSSSRAVSPFAKIRSSMVQVASITQAGLTHGINFAVSKVQKSPPEPEIINQVQQNELKKMFIQCQTRIIQI [INPP5F],-0.015,51.3 °C,49.3 °C,-0.171
MENFRKVRSEEAPAGCGAEGGGPGSGPFADLAPGAVHMRVKEGSKIRNLMAFATASMAQPATRAIVFSGCGRATTKTVTCAEILKRRLAGLHQVTRLRYRSVREVWQSLPPGPTQGQTPGEPAASLSVLKNVPGLAILLSKDALDPRQPGYQPPNPHPGPSSPPAAPASKRSLGEPAAGEGSAKRSQPEPGVADEDQTA [RPP25],0.179,54.5 °C,53.7 °C,0.258
MEPAGPCGFCPAGEVQPARYTCPRCNAPYCSLRCYRTHGTCAENFYRDQVLGELRGCSAPPSRLASALRRLRQQRETEDEPGEAGLSSGPAPGGLSGLWERLAPGEKAAFERLLSRGEAGRLLPPWRPWWWNRGAGPQLLEELDNAPGSDAAELELAPARTPPDSVKDASAAEPAAAERVLGDVPGACTPVVPTRIPAIVSLSRGPVSPLVRFQLPNVLFAYAHTLALYHGGDDALLSDFCATLLGVSGALGAQQVFASAEEALQAAAHVLEAGEHPPGPLGTRGAMHEVARILLGEGPTNQKGYTLAALGDLAQTLGRARKQAVAREERDHLYRARKKCQFLLAWTNENEAALTPLALDCARAHQAHAVVAEEVAALTGELERLWGGPVPPAPRTLIEELPS [ZNHIT2],0.384,48.9 °C,49.4 °C,0.141
